Test results as given in paper PMC8769072 (2022).

T1: MAP1A1836-1851 (Homo sapiens (Human), UniProt P78559)
T1 chain: PSWLADIPPWVPKDRP

T2: ITB3763-778 (Homo sapiens (Human), UniProt P05106)
T2 chain: AKWDTANNPLYKEATS


Legend:
MAP1A1836-1851 = target: T1, MAP1A1836-1851; assay: FP competition
ITB3763-778 = target: T2, ITB3763-778; assay: FP competition

Row | Kd (MAP1A1836-1851) | Kd (ITB3763-778) | Binder
1 | 355 µM |  | SFN 14-3-3 (protein) MERASLIQKAKLAEQAERYEDMAAFMKGAVEKGEELSCEERNLLSVAYKNVVGGQRAAWRVLSSIEQKSNEEGSEEKGPEVREYREKVETELQGVCDTVLGLLDSHLIKEAGDAESRVFYLKMKGDYYRYLAEVATGDDKKRIIDSARSAYQEAMDISKKEMPPTNPIRLGLALNFSVFHYEIANSPEEAISLAKTTFDEAMADLHTLSEDSYKDSTLIMQLLRDNLTLWTADNAGEEGGEAPQEPQS
2 |  | 500 µM | TLN1 PTB (protein) GVSFFLVKEKMKGKNKLVPRLLGITKECVMRVDEKTKEVIQEWNLTNIKRWAASPKSFTLDFGDYQDGYYSVQTTEGEQIAQLIAGYIDIILK
